Results on 20 molecules are retold here after US20210388110A1.

The assay addresses extracellular matrix (BD Matrigel). The experiment in a line: ECL on Matrigel-coated plate, relative to MRAH-G1d/MRAL-k0.

Substitutions are numbered along the chain they refer to.

B1: TR01H040-E2702GsKsc/H0610-E2704sEpsc/L0211-k0 (bispecific antibody, human IgG4 S228P, kappa, N297A)
heavy 1: QVQLVESGGGLVQPGRSLRLSCAASGFTFSNAWMHWVRQAPGKGLEWVAQIKDKSQNYATYYAESVKGRFTISRADSKNSIYLQMNSLKTEDTAVYYCRYVHYSASYGVDAWGQGTTVTVSSASTKGPSVFPLAPCSRSTSESTAALGCLVKDYFPEPVTVSWNSGALTSGVHTFPAVLQSSGLYSLSSVVTVPSSSLGTKTYTCNVDHKPSNTKVDKRVESKYGPPCPPCPAPEFRGGPKVFLFPPKPKDTLMISRTPEVTCVVVDVSQEDPEVQFNWYVDGVEVHNAKTKPREEQFASTYRVVSVLTVLHQDWLNGKEYKCKVSNKGLPSSIEKTISKAKGQPREPQVYTLPPSQKEMTKNQVSLTCLVKGFYPSDIAVEWESNGQPENNYKTTPPVLDSDGSFFLYSKLTVDKSRWQEGNVFSCSVMHEALHNRYTQKSLSLSP
heavy 2: QVQLVQSGAEVKKPGASVKVSCKASGYTFTDYEMHWIRQPPGQGLEWIGAIDGKTPDTAYSQKFKGRVTLTADKSTSTAYMELSSLTSEDTAVYYCTRFYSYTYWGQGTLVTVSSASTKGPSVFPLAPCSRSTSESTAALGCLVKDYFPEPVTVSWNSGALTSGVHTFPAVLQSSGLYSLSSVVTVPSSSLGTQTYTCNVDHKPSNTKVDKRVESKYGPPCPPCPAPEFRGGPKVFLFPPKPKDTLMISRTPEVTCVVVDVSQEDPEVQFNWYVDGVEVHNAKTKPREEQFASTYRVVSVLTVLHQDWLNGKEYKCKVSNKGLPSSIEKTISKAKGQPREPQVYTLPPSQEEMTKNQVSLTCLVKGFYPSDIAVEWESNGQPENNYKTTPPVLDSDGSFFLYSKLTVDKSRWQEGNVFSCSVMHEALHNHYTQESLSLSP
light: DIVMTQSPLSLPVTPGEPASISCRSSQPPVHSNRNTYLHWYQQKPGQAPRLLIYKVSNRFSGVPDRFSGSGSGTDFTLKISRVEAEDVGVYYCYQGTQVPYTFGQGTKLEIKRTVAAPSVFIFPPSDEQLKSGTASVVCLLNNFYPREAKVQWKVDNALQSGNSQESVTEQDSKDSTYSLSSTLTLSKADYEKHKVYACEVTHQGLSSPVTKSFNRGEC
For B1, the ECM binding ratio (standard = 1) came out at 15.5.

B2: TR01H113-E2702GsKsc/GCH065-E2704sEpsc/L0011-k0 (bispecific antibody, human IgG4 S228P, kappa, N297A)
heavy 1: B1 heavy 1 with L11V, R16G, Y62V, S104A, S106G, A111I
heavy 2: B1 heavy 2 with K19T, Q43E, K54P, Q62E
light: B1 light with P29L, Y94G
As for B2, the ECM binding ratio (standard = 1) was determined as 2.5.

B3: TR01H109-E2702GsKsc/GCH094-E2704sEpsc/L0011-k0 (bispecific antibody, human IgG4 S228P, kappa, N297A)
heavy 1: B1 heavy 1 with Y62V, A75D, I81L, S104A, S106G
heavy 2: B1 heavy 2 with K19T, I37V, P40A, Q43E, I48M, K54E, Q62E
light: B1 light with P29L, Y94G
Take B3: the ECM binding ratio (standard = 1) was 0.4.

B4: TR01H084-E2702GsKsc/GCH065-E2704sEpsc/L0011-k0 (bispecific antibody, human IgG4 S228P, kappa, N297A)
heavy 1: B1 heavy 1 with L11V, R16G, S104A, S106G, A111I
heavy 2: B1 heavy 2 with K19T, Q43E, K54P, Q62E
light: B1 light with P29L, Y94G
Consider B4, for which the ECM binding ratio (standard = 1) was 1.3.

B5: TR01H084-E2702GsKsc/GCH094-E2704sEpsc/L0011-k0 (bispecific antibody, human IgG4 S228P, kappa, N297A)
heavy 1: B1 heavy 1 with L11V, R16G, S104A, S106G, A111I
heavy 2: B1 heavy 2 with K19T, I37V, P40A, Q43E, I48M, K54E, Q62E
light: B1 light with P29L, Y94G
As to B5, the ECM binding ratio (standard = 1) turned out to be 1.2.

B6: TR01H040-E2702GsKsc/H0610-E2704sEpsc/L0000-k0 (bispecific antibody, human IgG4 S228P, kappa, N297A)
heavy 1: B1 heavy 1
heavy 2: B1 heavy 2
light: B1 light with P28S, P29L, Y94G
Turning to B6, the ECM binding ratio (standard = 1) worked out at 0.8.

B7: TR01H113-E2702sKsc/GCH065-E2704sEpsc/L0011-k0 (bispecific antibody, human IgG4 S228P, kappa, N297A)
heavy 1: B1 heavy 1 with L11V, R16G, Y62V, S104A, S106G, A111I, R437H
heavy 2: B1 heavy 2 with K19T, Q43E, K54P, Q62E
light: B1 light with P29L, Y94G
For B7, the ECM binding ratio (standard = 1) amounted to 0.3.

B8: TR01H109-E2702GsKsc/GCH065-E2704sEpsc/L0011-k0 (bispecific antibody, human IgG4 S228P, kappa, N297A)
heavy 1: B1 heavy 1 with Y62V, A75D, I81L, S104A, S106G
heavy 2: B1 heavy 2 with K19T, Q43E, K54P, Q62E
light: B1 light with P29L, Y94G
Consider B8, for which the ECM binding ratio (standard = 1) was determined as 0.7.

B9: TR01H067-E2702GsKsc/GCH054-E2704sEpsc/L0212-k0 (bispecific antibody, human IgG4 S228P, kappa, N297A)
heavy 1: B1 heavy 1 with A75D, I81L, S104A
heavy 2: B1 heavy 2 with K19T, Q43E, K54E, Q62E
light: B1 light with S25P, P28S
As for B9, the ECM binding ratio (standard = 1) was found to be 3.3.

B10: TR01H040-E2702GsKsc/H0610-E2704sEpsc/L0201-k0 (bispecific antibody, human IgG4 S228P, kappa, N297A)
heavy 1: B1 heavy 1
heavy 2: B1 heavy 2
light: B1 light with Y94G
Take B10: the ECM binding ratio (standard = 1) came out at 0.8.

B11: TR01H040-E2702GsKsc/H0610-E2704sEpsc/L0209-k0 (bispecific antibody, human IgG4 S228P, kappa, N297A)
heavy 1: B1 heavy 1
heavy 2: B1 heavy 2
light: B1 light with P28S, L38I
Regarding B11, the ECM binding ratio (standard = 1) was found to be 7.4.

B12: TR01H040-E2702GsKsc/H0610-E2704sEpsc/L0204-k0 (bispecific antibody, human IgG4 S228P, kappa, N297A)
heavy 1: B1 heavy 1
heavy 2: B1 heavy 2
light: B1 light with P28S, S61R, Y94G
In the case of B12, the ECM binding ratio (standard = 1) worked out at 4.4.

B13: TR01H067-E2702GsKsc/GCH054-E2704sEpsc/L0222-k0 (bispecific antibody, human IgG4 S228P, kappa, N297A)
heavy 1: B1 heavy 1 with A75D, I81L, S104A
heavy 2: B1 heavy 2 with K19T, Q43E, K54E, Q62E
light: B1 light with P28S, L38I, H39Q
As for B13, the ECM binding ratio (standard = 1) was determined as 0.6.

B14: TR01H082-E2702GsKsc/GCH094-E2704sEpsc/L0011-k0 (bispecific antibody, human IgG4 S228P, kappa, N297A)
heavy 1: B1 heavy 1 with A75D, I81L, S104A, S106G
heavy 2: B1 heavy 2 with K19T, I37V, P40A, Q43E, I48M, K54E, Q62E
light: B1 light with P29L, Y94G
For the molecule B14, the ECM binding ratio (standard = 1) was 0.7.

B15: TR01H082-E2702GsKsc/GCH065-E2704sEpsc/L0011-k0 (bispecific antibody, human IgG4 S228P, kappa, N297A)
heavy 1: B1 heavy 1 with A75D, I81L, S104A, S106G
heavy 2: B1 heavy 2 with K19T, Q43E, K54P, Q62E
light: B1 light with P29L, Y94G
Regarding B15, the ECM binding ratio (standard = 1) stood at 1.7.

B16: TR01H082-E2702GsKsc/GCH094-E2704sEpsc/L0201-k0 (bispecific antibody, human IgG4 S228P, kappa, N297A)
heavy 1: B1 heavy 1 with A75D, I81L, S104A, S106G
heavy 2: B1 heavy 2 with K19T, I37V, P40A, Q43E, I48M, K54E, Q62E
light: B1 light with Y94G
For the molecule B16, the ECM binding ratio (standard = 1) worked out at 1.1.

B17: TR01H113-E2702GsKsc/GCH094-E2704sEpsc/L0011-k0 (bispecific antibody, human IgG4 S228P, kappa, N297A)
heavy 1: B1 heavy 1 with L11V, R16G, Y62V, S104A, S106G, A111I
heavy 2: B1 heavy 2 with K19T, I37V, P40A, Q43E, I48M, K54E, Q62E
light: B1 light with P29L, Y94G
On to B17, for which the ECM binding ratio (standard = 1) is 1.6.

B18: TR01H067-E2702GsKsc/GCH054-E2704sEpsc/L0201-k0 (bispecific antibody, human IgG4 S228P, kappa, N297A)
heavy 1: B1 heavy 1 with A75D, I81L, S104A
heavy 2: B1 heavy 2 with K19T, Q43E, K54E, Q62E
light: B1 light with Y94G
With B18, the ECM binding ratio (standard = 1) turned out to be 0.5.

B19: TR01H040-E2702GsKsc/H0610-E2704sEpsc/L0203-k0 (bispecific antibody, human IgG4 S228P, kappa, N297A)
heavy 1: B1 heavy 1
heavy 2: B1 heavy 2
light: B1 light with P28S, L38I, Y94G
As for B19, the ECM binding ratio (standard = 1) was 0.8.

B20: TR01H040-E2702GsKsc/H0610-E2704sEpsc/L0206-k0 (bispecific antibody, human IgG4 S228P, kappa, N297A)
heavy 1: B1 heavy 1
heavy 2: B1 heavy 2
light: B1 light with P28S
In the case of B20, the ECM binding ratio (standard = 1) was 15.4.
